Results from the DeepSol protein solubility set.

Test: soluble on expression in E. coli; label from the status in PepcDB or PDB records

Sequence | soluble on expression in E. coli
MGSDKIHHHHHHMSMTDTTLAETEILLAQPRGFCAGVDRAIEIVERAIKLHGSPIYVRHEIVHNAYVVEDLRKKGAIFIERLEEVPPGNTVIFSAHGVSKAVRSEAEIRGLRVYDATCPLVTKVHIEVAKMRQDGFDIVMIGHKGHPEVEGTMGQAGEGMHLVEDIEDVQALQLADPERIAFVTQTTLSVDDAAQIIAALKAKYPSIREPKKQDICYATQNRQDAVKFMAPQCDVVIVVGSPNSSNSNRLRELAEKLGVPAYMVDSPDQIDPVWVEGKRRIGVTAGASAPEVLAQAVIARLRELGVRNVRALDGIEENIAFPLPRGLGLPA | not soluble
MGSDKIHHHHHHMRLRRLPVYVDAYKEKPNAEIFIYYSSRGTGKTYDIATVNLERKFSADGGDTLAIRKKKNKTTQSIHKEILELLSIYNLRKFFNISKAKIESKSLIFGKKRAFVFEGGHDTRDLKSYAHFKDLWLEEANQFSADDIEMLVPTMREQGGRIYMSSNPVPKSHWLYKRYLSNQDNPAVCIIKSTYRDNPFLNGGDVQAWLEKQRLAYHGNDIGFRIEVLGEEFDFGTARLIKKFNVCGPEILSRANGSYYTGIHVKGNRICFLEILVGRISYLPVVIITNACSKVLLSKTDYQSEINKFKGVFVLPTAREELKYVFSRFGRGTLLAKKRNLYSLSDYLIPSNLNVVNKPETTDVISEFNETEYYYDESSAEDSEVTNFVMQKDLVYIPAFLNAISVFS | not soluble
MSLEIGILDIKGSLPLFEDFGNLPTKIITENNYKEIKDLDALIIPGGSLIESKSLNDDLKKEIINFNGYIIGICSGFQILAKKIDIGRKSSVPIIKEGLGLLDVEFSPLVCTDRVEFEVKKSIFGEGKGEGFHCHTYGNIEVVDKETKILTVSKVKKLNYKLGAEKEIISGAFKGKVFGTMVHNFLDNEFVRDNFLKHLGVTEDEKEEIFEKNKIIKDELKKRALKYRLNPKLLKENNKKDVNKKRGIILLATSSNSGKTFLTTALSSKLNGRVFVAKIGGDVRDIVPALYLLREKMTKYNSIKIGERGWVDVSKFLDYIKKSDYDYIIVEGVMGAFTAALKNISSYQIAKKLGFPVYIVSACNISGIEGAFVEAMAYYSLLKDIGIKVEGVILNKVYDWNSFNKLKSLAEKHNIKLYGVGKIANESRGLIPEVEIDYESFCRNAFNVDLEIEIPEVEINNHIKDEEDNFLERLDNWMENINEGHHHHHH | soluble
MGSDKIHHHHHHMKLSINKNTLESAVILCNAYVEKKDSSTITSHLFFHADEDKLLIKASDYEIGINYKIKKIRVESSGFATANAKSIADVIKSLNNEEVVLETIDNFLFVRQKSTKYKLPMFNHEDFPNFPNTEGKNQFDIDSSDLSRSLKKILPSIDTNNPKYSLNGAFLDIKTDKINFVGTDTKRLAIYTLEKANNQEFSFSIPKKAIMEMQKLFYEKIEIFYDQNMLIAKNENFEFFTKLINDKFPDYEKVIPKTFKQELSFSTEDFIDSLKKISVVTEKMRLHFNKDKIIFEGISLDNMEAKTELEIQTGVSEEFNLTIKIKHLLDFLTSIEEEKFTLSVNEPNSAFIVKSQGLSMIIMPMIL | not soluble
MGSDKIHHHHHHMMTDTHASKNTSTDRSTLDEETVPGGGHTSFILKRGQILQITDVEGGGNVGLLLFNAHQTSERLNLPDTLKGQHTAKLTAGYCLYSDMGRVLAAIVTDTCGWHDSMGGVLNAQEVHEKYGQGRYQELRNGFFRNGMDNLLVEMGKWNLNLQDLLMTINLFSKVTVDAQGQFRFHANHSQAGNYIELYAPMDTLVVLTALQHPMDPNPTYAPRPIALTWSRAEGEDVAKYCREFREENARAFHNTERGYL | not soluble
MRNETLVSIIVPVYNSAQYLRKCIDSILAQSYTEFELLLINDGSEDHSGLICDDYAQSDNRIQVFHQENAGVSAARNLGLEKHTGEHFLFIDSDDYIQERYLEELMKYASCDFVQCSCCSEPVGNDYLFVDGNFEGSDEIKQCLLKYIYPEFTVPFGRLYKSSIQRKNKLFFDTYLYSGEDTLWVSQYLLCVHSLRVSSYIGYIYVHHVGEHLSQKSISYEHLEYTLHKLLISYSDLEKRYDFDLTGVRYSVIIYFFHRYIVYIANRNYTEIRKELEKSCANPLIKGVFYDKKYLLKGKKMKLFNWLVLHDMYSVLALYVKRWKRYL | not soluble
TPRGYTTWVNTIQTNGLLNEASQNLFGILSVDCTSEEMNAFLDVVPGQAGQKQILLDAIDKIADDWDNRHPLPNAPLVAPPQGPIPMTARFIRGLGVPRERQMEPAFDQFRQTYRQWIIEAMSEGIKVMIGKPKAQNIRQGAKEPYPEFVDRLLSQIKSEGHPQEISKFLTDTLTIQNANEECRNAMRHLRPEDTLEEKMYACRDIG | soluble
MANTLFDKIWDAHVVQKVEEGPTQLYIDRLYCHEVTSPQAFAGLRARGVKVFRPDHVYCMPDHNTPTHDQDKPIEDPVSKTQVDTLAKNAKDFGLAHFGMMDKRNGIIHVVGPERGLTLPGMTIVCGDSHTSTHGAMGAVAFGIGTSEVEMVLASQCILQSRPKT | not soluble
MRMSKMARKDPTIEFCQLGLDTFETKYITMFGMLVSCSFDKPAFISFVFSDFTKNDIVQNYLYDRYLIDYENKLELNEGFKAIMYKNQFETFDSKLRKIFNNGLRDLQNGRDENLSQYGIVCKMNIKVKMYNGKLNAIVRECEPVPHSQISSIASPSQCEHLRLFYQRAFKRIGESAISRYFEEYRRFFPIHRNGSHLA | soluble
MSLEQYFKRFLGEENAYFDEIHKRAYSYDATKKHYLPDGVLFPRNEEDIARILKFCNENNIIVIPRGSGSGFTGGALAVNGGVVLAFEKHMNKILEIDLENLVAVVQPGVINIHLQKEVAKYGLFYPPDPASMEYSSLGGNVSENAGGMRAAKYGITKDYVMALRAVLPSGEIIRAGKRTIKDVAGYNLAGILIASEGSLAVLSELTLKLIPLPKFKKTAFAIFPSVKSAMNAVYKSLASGVSPVSMEFLDNLSIRAVESKFNKGLPIEAGAILIADVDGNVKEAIDEDLRNLEHYFLEAGASEFKIAKDEQETADIWFARRNCSQSIAMYGTLKLNEDITVPRSKLPTLLEGIDEISKKYGFKIPCFGHTGDGNVHTNVMVPDKNDKEQVKKGYEAVEEIFKLTVKLGGTLSGEHGIGLSKAPFMNLAFSEAEMNLMRNIKKAFDPNNILNPFKMGLEGHHHHHH | soluble
MSLIKLRPHHIMCFQGYEGKGYSQDFIDNMDNIYRDLKEKDNLKIKIVFSTDDVCGSCPNKISDNNCGCNEKVMAIDNKVIRVLKLKQKIYTYNELVNKLRLNINEGVMKDICGQCVWYENSKCKTSILSLEGHHHHHH | soluble
MGSDKIHHHHHHMSEAMQLTLPKSGSIEAYMQSAYSIPMLTAEKEHDLATRLYNENDLQAAQELIMSHLRFVIHVAKGYSGYGLPHADLVQEGNVGLMKAVKRFNPEVGVRLVSFAVHWIKAEIHEFVLKNWRIVKVATTKAQRKLFFNLRKNKKRLGWFSTEEVNTVAENLGVTTKDVMEMESRMSSHDQAFELSKDDDDNLGSSSFSPAQYLQDKQSDLAVEVENDNWDNHANKRLSTALVTLDERSQDIIKTRWLTEDKTTLQELANKYQISAERVRQLEKNALSKLKNTMVFD | not soluble
MGSDKIHHHHHHMRQLSINRLKEGDILGRTIYANDGRVLLGKGMALTKSYIDRLKTLGINILYIDDEVSKDIIVEDIISEEHRREAMASLDNAVQAVKVGKDFDGFNVKRNIDNIIQDILFQKDIFIGLTDMRTYDNQIFAHSVNVCVLSIVLGKALGLDRENLEGLAIGALFHDIGTVKLPKKLLSKREPFTPKEAALYQTHTNHGFDILRTKRELNLLSAHIAFQHHERLNGNGYPRKLEGDAIHQWAQIVGIANFYDNLVNDGPGHTRIPPYEACEILMGSAEKFFPKDLVITFLKHIAAYPTGCTVKLSTGETGIVVEQNKSLPMRPIIRVLVADQTLSRVQAKEYNLVEERTLFIESILE | not soluble
MPLCTLRQMLGEARKHKYGVGAFNVNNMEQIQGIMKAVVQLKSPVILQCSRGALKYSDMIYLKKLCEAALEKHPDIPICIHLDHGDTLESVKMAIDLGFSSVMIDASHHPFDENVRITKEVVAYAHARSVSVEAELGTLGGIEEDVQNTVQLTEPQDAKKFVELTGVDALAVAIGTSHGAYKFKSESDIRLAIDRVKTISDLTGIPLVMHGSSSVPKDVKDMINKYGGKMPDAVGVPIESIVHAIGEGVCKINVDSDSRMAMTGAIRKVFVEHPEKFDPRDYLGPGRDAITEMLIPKIKAFGSAGHAGDYKVVSLEEAKAWYK | soluble
MASATARGLRKRLTPQEARLWAGLRELKLRGYHFRRRAPIGCYVVDFVCLSAKLVIDADGEQQAMPAHFAADRQRGVVLRRQGFRVLHFWNSDIDRYFEGVMQTVLDALPPPSVRPNVSRTGHSIHEGAGESG | soluble
SFTSMLSVNQAVSAERKLIDHLIIYIEHEAQRLEDIKRFFSRVTSLHDGIYNEPSDPIANPIAAFKLVKRLKSEWLNVVHSTEAEENIKVLREDYRRMESSLPKLEDLRGAAHGLMRLQDVYNLHVESLVRGHFQQISDPVDFYKLSVSDMLSGDDCFLVGKVAYDLEDYYHSVLWFEEAVRLFRGTEWSPENEGTLEDALDHLAFSHFKVCH | not soluble
MGSDKIHHHHHHAQKGEKTLTVEVSNEWTQNKTDEPIVIDLNNLKAGFNIKSATVWEGNKEIPSQLDDLNGDARADELAFLIDMPAKSNKSFRIILSSEKSEKNYPARTYAQMKAYGHNNKFANITGFSAAGTENVYSFVYHHGPAIESELVAYRIYFNEKQTVDPYSKVNKRLEIKETCFYPTKAQRANGYGDDALRVYNSGGVGALKGWNGTEATHIKPVVNRTERVLASGPVRAIVEAEVIGWEYQGNDLNMINRYTIYGGHRDMKVDVLFDRPLKQEVFAAGVQILKEGGHMSDHKGLTGSWGTDWPVTDTIGYVKETTGMGTFIPKYIGKEVQDGSNYLYTLQAPGQQHFHYYVTFTSKKESFGFKDMKDWFNYLPQWRKELEHPCKITIK | not soluble
LPLCDSLIIWLQTFKTASPCQDVKQLTNGVTMAQVLHQIDVAWFSESWLSRIKDDVGDNWRIKASNLKKVLHGITSYYHEFLGQQISEELIPDLNQITECADPVELGRLLQLILGCAVNCEKKQEHIKNIMTLEESVQHVVMTAIQELMSK | soluble
MIFSDWPWRHWRQVRGEAIALRLNDEQLNWRELCARVDELASGFAVQGVVEDSGVMLRAWNTPQTLLAWLALLQCGARVLPVNPQLPQPLLEELLPNLTLQFALVPDGENTFPALTSLHIQRVEGAHVATWQPTRLCSMTLTSGSTGLPKAAVHTYQAHLASAEGVLSLIPFGDHDDWLLSLPLFHVSGQGIMWRWLYAGARMTVRDKQPLEQMLAGCTHASLVPTQLWRLLVNRSSVSLKAVLLGGAAIPVELTEQAREQGIRCFCGYGLTEFASTVCAKEADGLADVGSPLPGREVKIVNNEVWLRAASMAEGYWRNGQLVSLVNDEGWYATRDRGEMHNGKLTIVGRLDNLFFSGGEGIQTEEVERVIAAHPAVLQVFIVPVADKEFGHRPVAVMEYDHESVDLSEWVKDKLARFQQPVRWLTLPPELKNGGIKISRQALKEWVQRQQ | not soluble
PKYTKSVLKKGDKTNFPKKGDVVHCWYTGTLQDGTVFDTNIQTSAKKKKNAKPLSFKVGVGKVIRGWDEALLTMSKGEKARLEIEPEWAYGKKGQPDAKIPPNAKLTFEVELVDID | soluble
MGSDKIHHHHHHMKTSVKFETIFPLTTAPLIQCITNEITCESMANALLYIDAKPIMADDPREFPQMFQQTSALVLNLGHLSQEREQSLLAASDYARQVNKLTVVDLVGYGASDIRNEVGEKLVHNQPTVVKGNLSEMRTFCQLVSHGRGVDGSPLDQSEEAIEELIQALRQQTQKFPQTVFLATGIQDVLVSQEQVIVLQNGVPELDCFTGTGDLVGALVAALLGEGNAPMTAAVAAVSYFNLCGEKAKTKSQGLADFRQNTLNQLSLLMKEKDWFEAVKGRVL | not soluble
